Measurements from the DeepSol protein solubility set.

Test: soluble on expression in E. coli; label from the status in PepcDB or PDB records

Sequence	soluble on expression in E. coli
MAEKTYSGFVAIVGKPNVGKSTLLNNLLGVKVAPISPRPQTTRKRLRGILTEGRRQIVFVDTPGLHKPMDALGEFMDQEVYEALADVNAVVWVVDLRHPPTPEDELVARALKPLVGKVPILLVGNKLDAAKYPEEAMKAYHELLPEAEPRMLSALDERQVAELKADLLALMPEGPFFYPEDYAKSDQTFGEWVAEILREEAMKRLWHEVPYAVATKVEEVAERENGVLYIKAILYVERPSQKAIVIGEGGRKIKEIGQATRKQLEALLGKKVYLDLEVKVYPDWRKDPEALRELGYRSSVG	soluble
MQIVKKEKFILKEYTFENGRTIPVQMGYETYGTLNRERSNVILICHYFSATSHAAGKYTAHDEESGWWDGLIGPGKAIDTNQYFVICTDNLCNVQVKNPHVITTGPKSINPKTGDEYAMDFPVFTFLDVARMQCELIKDMGIARLHAVMGPSAGGMIAQQWAVHYPHMVERMIGVITNPQNPIITSVNVAQNAIEAIRLDPSWKGGKYGEEQPMKGLQLANRMMFMNAFDEHFYETTYPRNSIEVEPYEKVSSLTSFEKEINKLTYRSIELVDANSWMYTAKAVLLHDIAHGFSSLEEALSNVEANVLMIPCKQDLLQPSRYNYKMVDLLQKQGKYAEVYEIESINGHMAGVFDIHLFEKKVYEFLNRKVSSFV	not soluble
QAPGWLKEMRGEHAPETEEYGIASTAYRARRPFHPQRFFDLINRPWTNGKLLRSKGFFWLASKYKDAGSWSQAGGLMRHGFAGRWWRFVTRDSWPQDKESVASILENWSSETGDCRQELVFIGQNIDFTLLTAELDNCLLTDDEMAAGAERWRQLSDPFGEWYEDEVAA	not soluble
MEIATRLKMNVKEQTEVILTNFTKMLFRRKLIKDQQSLLNKLKNIDTKDIYHFKENDMNFLLIITFQKLNGIKKGSEIEEQLIKSKGYNFIIASQSSNKTYQQVKNFKGELFLTLEFLSDIPSLPFVPEHILLSEKEKEEILSVYKEKNIAKIFVTDMMARYLGAKKGDLIKIIRKTLNTGESIYYRRVF	not soluble
MITLREFKEENTAQLTHILNEPEVVKYLSSKIPKPDTLQDAQWWISTGSKFGIVKAIECNGSLIGCIGADRGEFEYQRSAEIGYWIAKDYWRQGVATQAISELIPLIFTTTDIVRLFASVFSENTASMRVLDKCGLKLEAIHKKAIYKDGKFYDNHIFSILKT	not soluble
MEGLEAYDYHLPPEQIAQEGVEPRDMARLMVVYREGPFRVAHKRVRDLPEFLRPGDVLVFNESKVIPARLLARKPTGGKVEILLVRERSPGLWEALLGPARKAPPGTRLLLLSPKDLAPVPGLQAEVVAVEEDGVRLLRFQGDLVAHLEEVGEVPLPPYIKAKIPMERYQTVYARRPGSVAAPTAGLHFTPELLERLREMGVELRFLTLHVGPGTFRPVKGDPEKHEMHAEPYAIPEEVAEAVNRAKAEGRRVVAVGTTVVRALESAYREGVGVVAGEGETRLFIRPPYTFKVVDALFTNFHLPRSTLLMLVAAFLGRERTLEAYRLAVAEGYRFYSLGDAMLIL	soluble
SYIDIPPEGSETKNRHNANNPSDVLVIENKHLTKEWPSGGQMMVNNLTAKYTSDGRAVLQDLSFSVNAGQRVGLLGRTGAGKSTLLSALLRLLSTEGEIQIDGISWNSVSLQKWRKAFGVIPQKVFVFSGTFRKNLDPYEQWSDEEIWKVTEEVGLKSMIEQFPDKLNFVLVDGGYILSNGHKQLMCLARSILSKAKILLLDEPTAHLDPVTFQIIRKTLKHTFSNCTVILSEHRVEALLECQQFLVIEGCSVKQFDALQKLLTEASLFKQVFGHLDRAKLFTAHRRNSSKRKTRPKISALQ	not soluble
GLEVDNNSLLRNIYSTIVYEYSDIVIDFKTSHNLVTKKLDVRDARDFFINSEMDEYAANDFKTGDKIAVFSVPFDWNYLSKGKVTAYTYGGITPYQKTSIPKNIPVNLWINGKQISVPYNEISTNKTTVTAQEIDLKVRKFLIAQHQLYSSGSSYKSGRLVFHTNDNSDKYSFDLFYVGYRDKESIFKVYKDNKSFNIDKIGHLDIEIDS	soluble
MMSASSPYPIGTPGQPWQASERQAWREQRHIQREYQQEVVPKILALNSLFDVSTYGALSYDPTRYPLYVVKSRHWNANKPTVLITGGVHGYETSGVHGALQFLATAAEPYLAHFNLLAAPCVSPWGYETINRWNPNAIDPNRSFVQDSPAEEAALLMAMVAEHGPILLHIDLHETTDTDESEFRPALAARDGKAYLEGSIPDGFYTVGDTENPQLAFQQAVIDSVRRVTHIAPADENHEIIGSPVVAEGVILYPMRELGLCGGMTDCTYSTTTEVYPDSPKVTAQLCNDAQVAAIIGALDYVLANEQSLLGE	not soluble
